Columns and labels:
CaMKKα = target: T1, CaMKKα (Rattus norvegicus, UniProt P97756); experiment: […]-GTP kinase assay with GST-CaMKIα ([…]-293, K49E); Lineweaver-Burk; type: biochemical
T1 construct: gene Camkk1; recombinant CaMKKα purified from E. coli; with calmodulin (Ca2+/CaM)

CaMKKβ = target: T2, CaMKKβ (Rattus norvegicus, UniProt O88831); experiment: as above; type: biochemical
T2 construct: gene Camkk2; recombinant CaMKKβ purified from E. coli; with calmodulin (Ca2+/CaM)

[1] = tested on: Nc1nc2c(ncn2[C@@H]2O[C@H](COP(=O)(O)OP(=O)(O)OP(=O)(O)O)[C@@H](O)[C@H]2O)c(=O)[nH]1; experiment: purified protein; conditions: Mg2+, Ca2+ phosphate donor; STO-609 competes with GTP; 30.0 °C
[2] = tested on: Nc1ncnc2c1ncn2[C@@H]1O[C@H](COP(=O)(O)OP(=O)(O)OP(=O)(O)O)[C@@H](O)[C@H]1O; experiment: purified protein; conditions: Mg2+, Ca2+ phosphate donor; 30.0 °C

T2 sequence (O88831 2-587): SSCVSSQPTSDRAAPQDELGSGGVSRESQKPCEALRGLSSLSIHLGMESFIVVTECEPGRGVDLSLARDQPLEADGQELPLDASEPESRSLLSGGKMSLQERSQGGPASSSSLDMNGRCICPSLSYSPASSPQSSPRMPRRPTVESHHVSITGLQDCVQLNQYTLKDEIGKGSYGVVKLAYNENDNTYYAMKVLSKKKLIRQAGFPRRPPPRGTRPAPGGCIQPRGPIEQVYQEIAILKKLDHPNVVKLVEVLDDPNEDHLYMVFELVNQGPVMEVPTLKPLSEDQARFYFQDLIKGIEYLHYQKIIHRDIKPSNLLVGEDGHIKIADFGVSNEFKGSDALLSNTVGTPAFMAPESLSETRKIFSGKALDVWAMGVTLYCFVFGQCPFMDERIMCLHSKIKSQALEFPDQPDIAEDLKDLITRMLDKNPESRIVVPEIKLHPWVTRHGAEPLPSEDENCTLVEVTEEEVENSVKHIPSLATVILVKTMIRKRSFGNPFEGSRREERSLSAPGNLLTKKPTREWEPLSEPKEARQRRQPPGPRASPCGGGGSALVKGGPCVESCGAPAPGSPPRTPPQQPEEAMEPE
T1 sequence (P97756 whole entry): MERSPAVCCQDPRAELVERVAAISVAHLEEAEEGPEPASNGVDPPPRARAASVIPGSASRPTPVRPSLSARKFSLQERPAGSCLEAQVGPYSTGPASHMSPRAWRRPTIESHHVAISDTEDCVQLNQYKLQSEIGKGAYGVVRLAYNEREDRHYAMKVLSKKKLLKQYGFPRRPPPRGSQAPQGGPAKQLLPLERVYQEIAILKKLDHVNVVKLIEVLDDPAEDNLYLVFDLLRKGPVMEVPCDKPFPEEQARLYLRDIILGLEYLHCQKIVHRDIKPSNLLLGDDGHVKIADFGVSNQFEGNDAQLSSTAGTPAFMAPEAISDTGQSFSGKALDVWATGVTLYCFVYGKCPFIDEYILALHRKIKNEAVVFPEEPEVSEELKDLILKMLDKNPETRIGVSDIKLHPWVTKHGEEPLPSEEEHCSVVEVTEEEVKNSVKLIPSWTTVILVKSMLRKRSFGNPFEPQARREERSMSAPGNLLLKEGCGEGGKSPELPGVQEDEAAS

Row | Compound | IC50 (CaMKKα) [nM] | IC50 (CaMKKβ) [nM] | Km [1] [µM] | Vmax [1] [µmol/min/mg] | Km [2] [µM] | Vmax [2] [µmol/min/mg]
1 | O=C(O)c1ccc2c3c1cccc3c(=O)n1c3ccccc3nc21 [STO-609, 7H-benzimidazo[2,1-a]benz[de]isoquinoline-7-one-3-carboxylic acid] | 255 | 38.2 | – | – | – | –
2 | CaMKKα (Rattus norvegicus) | – | – | 444 | 0.312 | 15 | 0.625
3 | CaMKKβ (Rattus norvegicus) | – | – | 507 | 0.077 | 15 | 0.286

Reference: publication PMC3537517, “In vitro substrate phosphorylation by Ca^2+/calmodulin-dependent protein kinase kinase using guanosine-5^′-triphosphate as a phosphate donor” (BMC Biochemistry, 2012)
